Data from article PMC7138525 (Cell reports, 2020).

T1: HCB, recombinant BoNT preparation coated for ELISA (Clostridium botulinum, BoNT/B subtype B1)
T1 chain: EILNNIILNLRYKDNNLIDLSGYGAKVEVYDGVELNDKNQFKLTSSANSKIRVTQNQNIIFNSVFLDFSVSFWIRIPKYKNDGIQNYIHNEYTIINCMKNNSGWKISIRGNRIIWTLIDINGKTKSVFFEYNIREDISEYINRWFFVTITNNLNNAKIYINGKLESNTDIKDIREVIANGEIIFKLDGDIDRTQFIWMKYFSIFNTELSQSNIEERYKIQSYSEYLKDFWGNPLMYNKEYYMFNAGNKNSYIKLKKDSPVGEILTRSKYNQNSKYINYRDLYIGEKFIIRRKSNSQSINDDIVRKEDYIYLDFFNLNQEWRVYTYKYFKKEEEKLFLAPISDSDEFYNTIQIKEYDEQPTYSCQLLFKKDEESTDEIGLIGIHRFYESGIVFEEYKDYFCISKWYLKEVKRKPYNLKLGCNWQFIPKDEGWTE

B1: VHH JLI-H11 (from GST fusion) (VHH)
VHH: QVQLVESGGGLVQPGESLRLSCGASGMSLDYYAIAWYRQAPGKEREGVSCISVSGSSAQYLDSVRGRFIISKDNTKSTAYLQMNSLKPEDTAVYYCAALADCAGYASLTFDFDSWGQGTQVAVSS
B2: VHH JLI-H11, His6-tagged thioredoxin fusion with carboxy-terminal E-tag (VHH)
VHH: B1 VHH
B3: VHH JLO-G11, His6-tagged thioredoxin fusion with carboxy-terminal E-tag (VHH)
VHH: QVQLAESGGGLVQPGGSLRLSCEASGFHLEHFAVGWFRQAPGKEREGVSCISASGDSTTYADSVKGRSTISKDNAKNAVYLQMDSLRPEDTGDYYCAASHFSVCGKNIRKIEYRYWGQGTPVTVSS
B4: VHH JLK-G12 (from GST fusion) (VHH)
VHH: QVQLVESGGGLVQAGGSLRLSCAASEFRAEHFAVGWFRQAPGKEREGVSCVDASGDSTAYADSVKGRFTISRDNNKNVVYLQMDSLEPEDTGDYYCGASYFTVCAKSMRKIEYRYWGQGTQVTVSS
B5: VHH JLK-G12, His6-tagged thioredoxin fusion with carboxy-terminal E-tag (VHH)
VHH: B4 VHH
B6: VHH JLI-G10 (VHH)
VHH: QVQLVESGGGLVQAGGSLRLSCAASILTYDLDYYYIGWVRQAPGKEREGVSCISSTDGATYYADSVKGRFTISRNNAKNTVYLQMNNLKPEDTAIYYCAAAPLAGRYCPASHEYGYWGQGTQVTVSS
B7: VHH JLI-G10, His6-tagged thioredoxin fusion with carboxy-terminal E-tag (VHH)
VHH: B6 VHH

What was measured:
[1] = biological target: T2, HCB, receptor-binding domain of BoNT/B1 (E859–E1291) (UniProt P10844); experiment: SEC
[2] = biological target: T1, HCB, recombinant BoNT preparation …; experiment: ELISA
[3] = biological target: T2, HCB, receptor-binding domain of BoNT/B1 …; experiment: crystal structure

Row | Binder | binding result [2] | other results
1 | B1 |  | binding result [1]: binds
2 | B2 | binds | 
3 | B3 | binds | 
4 | B4 |  | binding result [1]: binds
5 | B5 | binds | 
6 | B6 |  | binding result [3]: binds
7 | B7 | binds | 
